Patent publication US20160304604A1 (H LUNDBECK A S, published 2016)

Legend:
PAC1-R on PC-12 cells = biological target: T1, PAC1-R on PC-12 cells (UniProt P32215 20-523); assay: DELFIA TRF cell-surface binding assay: antibody pre-incubated with PACAP38 (200 nM stock mixed 1:1), added to PAC1-R-expressing PC-12 cells, Eu anti-human IgG detection
T1 construct: whole, on cells; Endogenous receptor of PC-12 cells; also called PAC1 receptor; PAC1-R-expressing PC-12 cells
T1 sequence (looked up): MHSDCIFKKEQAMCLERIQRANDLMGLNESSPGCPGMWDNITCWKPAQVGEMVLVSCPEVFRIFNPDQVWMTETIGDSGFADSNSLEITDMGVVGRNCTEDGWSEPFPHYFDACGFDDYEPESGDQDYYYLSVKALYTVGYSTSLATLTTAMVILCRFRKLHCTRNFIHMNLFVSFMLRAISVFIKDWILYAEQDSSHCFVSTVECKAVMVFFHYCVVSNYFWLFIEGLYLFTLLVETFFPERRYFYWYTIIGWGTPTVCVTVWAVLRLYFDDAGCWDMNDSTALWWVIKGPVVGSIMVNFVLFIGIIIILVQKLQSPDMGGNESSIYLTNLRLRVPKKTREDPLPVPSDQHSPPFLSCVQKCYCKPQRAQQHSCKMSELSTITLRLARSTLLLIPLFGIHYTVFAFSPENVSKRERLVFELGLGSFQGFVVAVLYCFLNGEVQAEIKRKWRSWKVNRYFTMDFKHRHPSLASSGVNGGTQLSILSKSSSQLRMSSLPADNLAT
Procedure: Cells were initially seeded at 1×10⁵ cells/well in a solution of complete RPMI (“cRPMI”: RPMI medium supplemented with 10% sterile heat-inactivated FBS and 1% sterile antibiotic/antimycotic)+10% FBS, and the plates were allowed to incubate overnight at 37° C. On the day of the binding assay, antibodies at an initial concentration of 15 μg/ml were diluted at a 1:3 ratio in DELFIA® binding buffer (50 mM Tris, 150 mM NaCl, 0.1% azide, 2% horse serum) (Perkin-Elmer, Waltham, Mass.) to a total volume of 60 μL in a separate 96 well round bottom plate. PACAP38 was prepared for the binding assay by diluting it in DELFIA® binding buffer to a concentration of 200 nM, and then 60 μl of the diluted PACAP38 was added to each of the antibody-containing wells to form antibody:antigen complexes. Following addition of PACAP38, the antibody:antigen complexes were incubated at room temperature on a shaker for 1 hour. […]
DELFIA® Europium labeled anti-human IgG detection reagent (Cat #1244-330, Perkin-Elmer, Waltham, Mass.) was diluted to a concentration of 300 ng/ml in DELFIA® Binding Buffer. […] The plates were then read (TRF, excitation 330 nm, emission 620 nm) on a SPECTRAMAX® (Molecular Devices, Sunnyvale, Calif.) plate reader.

human PACAP27 [1] = biological target: T2, human PACAP27 (human, C-terminal leucine is amidated); assay: cell-based or functional assay
T2 peptide: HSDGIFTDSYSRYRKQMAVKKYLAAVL

human PACAP38 [2] = biological target: T3, human PACAP38 (human, not fully specified; C-terminal lysine is amidated); assay: cell-based or functional assay
T3 peptide: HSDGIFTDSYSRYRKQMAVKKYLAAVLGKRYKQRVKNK

human PACAP38 [3] = biological target: T3, human PACAP38; assay: cell-based or functional assay
human PACAP38 [4] = biological target: T3, human PACAP38; assay: cell-based or functional assay
human PACAP38 [5] = biological target: T3, human PACAP38; assay: SPR (ProteOn XPR36), antibody amine-coupled to chip, PACAP38 as analyte 1.23-100 nM, 1:1 Langmuir fit
Procedure: Binding affinities of monoclonal antibodies for human PACAP were estimated using SPR on the PROTEON™ XPR36 (Bio-Rad, Hercules, Calif.). Antibody was immobilized to the surface of general amine coupling (“GLC” or “GLM”) Chips (Bio-Rad, Hercules, Calif.). A dilution series of human PACAP38 (SEQ ID NO: 1241) prepared in 1×PBST Buffer (4.3 mM Na Phosphate, 1.4 mM K Phosphate, 135 mM NaCl, 2.7 mM KCl 0.05% Polysorbate-20) purchased from Teknova (Cat# P1192, Teknova, Hollister, Calif.) and supplemented with 0.25 M arginine (from J. T. BAKER®), 0.2 mg/ml BSA (Jackson Immuno Research Labs, West Grove, Pa.), and 0.005% sodium azide (VWR International, Radnor, Pa.) with the pH adjusted to 7 was used to query the antibodies. Antigen (ranging from 1.23 nM to 100 nM) was typically run sequentially with association times of 2-4 minutes and dissociation times of 3-120 minutes grouped with the PROTEON™ Manager Software (v3.1.0.6 (Bio-Rad, Hercules, Calif.)) and fitted using a 1:1 Langmuir binding model. Surfaces were regenerated between analyte queries using 0.85% Phosphoric Acid.

human PACAP27 [6] = biological target: T2, human PACAP27; assay: SPR (ProteOn XPR36), antibody amine-coupled to chip, PACAP27 as analyte 1.23-1000 nM

B1: Ab10 (antibody, human IgG1, kappa, N297A, V domains shown)
VH: QSVEESGGRLVTPGTPLTLTCTVSGIDLNSYYMTWVRQAPGKGLEWIGFIDAGGDAYYASWAKGRFTISKTSTTVDLKITSPTTEDTATYFCARDLDLWGQGTLVTVSS
VL: AAVLTQTPSPVSAAVGGTVTINCQSSESVYGNYLAWFQQKPGQPPKLLIYEASKLESGVPSRFSGSGSGTQFTLTISDLQCDDAATYYCAGGDISEGVAFGGGTEVVVKR
notes: also called anti-PACAP antibody Ab10
binding result (PAC1-R on PC-12 cells): no binding (tested: about 5000 nM (last point as drawn))
Inhibition of 0.1 nM PACAP27-induced PAC1-R mediated cAMP increase IC50 (PC-12 cells, HTRF) (human PACAP27 [1]): 0.227 nM
Inhibition of 0.1 nM PACAP38-induced PAC1-R mediated cAMP increase IC50 (PC-12 cells, HTRF) (human PACAP38 [2]): 0.18 nM
Inhibition of 1 nM PACAP38-induced human VPAC2-R mediated cAMP increase IC50 (CHO-K1 cells, HTRF) (human PACAP38 [3]): 0.189 nM
Inhibition of 5 nM PACAP38-induced human VPAC1-R mediated cAMP increase IC50 (CHO-K1 cells, HTRF) (human PACAP38 [4]): 0.649 nM

B2: Ab20 (antibody, human IgG1, kappa, N297A, V domains shown)
VH: QSVEESGGRLVTPGTPLTLTCTVSGIDLSSYYMSWVRQAPGKGLEWIGFIDTDGSAYYATWAKGRFTISKTSTTVDLKITSPTTEDTATYFCARDLDLWGPGTLVTVSS
VL: AAVLTQTPSPVSAAVGGTVSISCQSSESVYSNYLAWFQQKPGQPPKFLIYEASKLASGVPSRFKGSGSGTQFTLTISDVQCDDAGTYYCAGGYSSEGVAFGGGTEVVVKR
Inhibition of 0.1 nM PACAP27-induced PAC1-R mediated cAMP increase IC50 (PC-12 cells, HTRF) (human PACAP27 [1]): 0.188 nM
Inhibition of 0.1 nM PACAP38-induced PAC1-R mediated cAMP increase IC50 (PC-12 cells, HTRF) (human PACAP38 [2]): 0.368 nM
Inhibition of 1 nM PACAP38-induced human VPAC2-R mediated cAMP increase IC50 (CHO-K1 cells, HTRF) (human PACAP38 [3]): 14.6 nM
Inhibition of 5 nM PACAP38-induced human VPAC1-R mediated cAMP increase IC50 (CHO-K1 cells, HTRF) (human PACAP38 [4]): 3.89 nM

B3: Ab21 (antibody, human IgG1, kappa, N297A, V domains shown)
VH: QSVEESGGRLVTPGTPLTLTCTVSGIDLSSYYMTWVRQAPGKGLEWVGFIDAGGSAYYATWAKGRFTISKASTTVDLKITSPTTEDTATYFCARDLDLWGPGTLVTVSS
VL: AAVLTQTPSPVSAAVGGTVSISCKSSESVYGDYLAWFQQKPGQPPKQLIYDASTLASGVPSRFKGSGSGTQFTLTISGVQCDDAATYYCAGGYVSAGVAFGGGTEVVVKR
Inhibition of 0.1 nM PACAP27-induced PAC1-R mediated cAMP increase IC50 (PC-12 cells, HTRF) (human PACAP27 [1]): 0.14 nM
Inhibition of 0.1 nM PACAP38-induced PAC1-R mediated cAMP increase IC50 (PC-12 cells, HTRF) (human PACAP38 [2]): 0.239 nM
Inhibition of 1 nM PACAP38-induced human VPAC2-R mediated cAMP increase IC50 (CHO-K1 cells, HTRF) (human PACAP38 [3]): 5.21 nM
Inhibition of 5 nM PACAP38-induced human VPAC1-R mediated cAMP increase IC50 (CHO-K1 cells, HTRF) (human PACAP38 [4]): 2.85 nM

B4: Ab21.H (antibody, V domains shown)
VH: EVQLVESGGGLVQPGGSLRLSCAASGIDLSSYYMTWVRQAPGKGLEWIGFIDAGGSAYYATWAKGRFTISRDNSKNTVYLQMNSLRAEDTAVYFCARDLDLWGQGTLVTVSS
VL: DAQLTQSPSTLSASVGDRVTITCKSSESVYGDYLAWFQQKPGKAPKQLIYDASTLASGVPSRFSGSGSGTEFTLTISSLQPDDFATYYCAGGYVSAGVAFGGGTKVEIKR
Inhibition of 0.1 nM PACAP27-induced PAC1-R mediated cAMP increase IC50 (PC-12 cells, HTRF) (human PACAP27 [1]): 0.204 nM
Inhibition of 0.1 nM PACAP38-induced PAC1-R mediated cAMP increase IC50 (PC-12 cells, HTRF) (human PACAP38 [2]): 0.246 nM
Inhibition of 1 nM PACAP38-induced human VPAC2-R mediated cAMP increase IC50 (CHO-K1 cells, HTRF) (human PACAP38 [3]): 1.51 nM
Kd (human PACAP38 [5]): 0.021 nM
koff (human PACAP38 [5]): 1e-05 s⁻¹
Inhibition of 5 nM PACAP38-induced human VPAC1-R mediated cAMP increase IC50 (CHO-K1 cells, HTRF) (human PACAP38 [4]): 2.1 nM
Kd (human PACAP27 [6]): 0.016 nM
koff (human PACAP27 [6]): 1e-05 s⁻¹
